The Immune Epitope Database (IEDB)

Tests used:
Test in all cases: IEDB peptide-MHC binding, purified MHC/competitive/radioactivity; filed as Kd, often an IC50 or EC50 that approximates it; ≥ and ≤ were set here for values at or beyond the usual limits of such assays
[1] = target: HLA-A*11:01
[2] = target: HLA-A*68:01
[3] = target: HLA-A*03:01
[4] = target: HLA-A*33:01
[5] = target: HLA-A*31:01
[6] = source organism: Vaccinia virus WR
[7] = source organism: SARS coronavirus Tor2
[8] = source organism: Dengue virus 3 Martinique/1243/1999
[9] = source organism: Dengue virus 4 Philippines/H241/1956
[10] = source organism: Dengue virus 2 Jamaica/1409/1983
[11] = source organism: Lassa virus Josiah
[12] = source organism: Mammarenavirus machupoense
[13] = source organism: Mammarenavirus guanaritoense
[14] = source organism: Dengue virus 1 Brazil/97-11/1997
[15] = source organism: Mammarenavirus brazilense
[16] = source organism: Lymphocytic choriomeningitis virus (strain Armstrong)

Row | Sequence | Kd [1, 6] | Kd [2, 6] | Kd [3, 6] | Kd [4, 6] | Kd [5, 6] | also measured
1 | AAIDRQVSVK | 10.6 nM | 693 nM | 257 nM | ≥ 70000 nM | 16500 nM | 
2 | AALDGTFQR | 2.62 nM | 1.95 nM | 6210 nM | 177 nM | 36.4 nM | 
3 | AAYYFMKFRR |  |  |  |  |  | Kd [1, 7]: 132 nM; Kd [2, 7]: 79.2 nM; Kd [3, 7]: 3050 nM; Kd [4, 7]: 277 nM; Kd [5, 7]: 41 nM
4 | ALINLVQYR | 3920 nM | 258 nM | 6500 nM | 17400 nM | 137 nM | 
5 | ALLALNDMGK |  |  |  |  |  | Kd [1, 8]: 196 nM; Kd [3, 8]: 28.4 nM
6 | AQPLPQRQKK |  |  |  |  |  | Kd [1, 7]: 1230 nM; Kd [2, 7]: ≥ 70200 nM; Kd [3, 7]: ≥ 33400 nM; Kd [4, 7]: ≥ 27500 nM; Kd [5, 7]: ≥ 32700 nM
7 | ASANLAATK |  |  |  |  |  | Kd [1, 7]: 14.4 nM; Kd [2, 7]: 78.3 nM; Kd [3, 7]: 77.1 nM; Kd [4, 7]: ≥ 77700 nM; Kd [5, 7]: 1030 nM
8 | ASITPNNLNK | 1.11 nM | 6.94 nM | 1.29 nM | ≥ 29800 nM | 47.6 nM | 
9 | ASKKDKLTVY | 1220 nM | ≥ 70200 nM | 6590 nM | ≥ 70000 nM | 5290 nM | 
10 | ASLPTYLSSR |  |  |  |  |  | Kd [5, 9]: 7.6 nM
11 | ASMGFKVTTR | 0.174 nM | 15.4 nM | 14 nM | 532 nM | 0.416 nM | 
12 | ATIQRFSSLR | 4.64 nM | 6.84 nM | 23.4 nM | 244 nM | 0.626 nM | 
13 | CTGKFKIVK |  |  |  |  |  | Kd [1, 10]: 98.3 nM
14 | DAHKKNLYDH |  |  |  |  |  | Kd [1, 11]: ≥ 69700 nM; Kd [2, 11]: ≥ 70100 nM; Kd [3, 11]: ≥ 70000 nM; Kd [4, 11]: ≥ 70000 nM; Kd [5, 11]: 3430 nM
15 | DILGVLTIK | 1120 nM | 343 nM | 714 nM | 194 nM | 12600 nM | 
16 | DIQQWEPSR |  |  |  |  |  | Kd [4, 10]: 113 nM
17 | DLPVWLAYR |  |  |  |  |  | Kd [4, 10]: 4 nM
18 | DSVKSILKWH |  |  |  |  |  | Kd [1, 12]: ≥ 69700 nM; Kd [2, 12]: ≥ 70100 nM; Kd [3, 12]: ≥ 70000 nM; Kd [4, 12]: ≥ 33100 nM; Kd [5, 12]: 2650 nM
19 | DTIESAKTK | 672 nM | 5.82 nM | 4100 nM | 3590 nM | 11300 nM | 
20 | DVSMMSMYGK | 1.28 nM | 1.21 nM | 149 nM | 584 nM | 231 nM | 
21 | DWTDGSRGYR |  |  |  |  |  | Kd [4, 13]: 1170 nM; Kd [5, 13]: 918 nM

Row | Sequence | Kd [1, 6] | Kd [2, 6] | Kd [3, 6] | Kd [4, 6] | Kd [5, 6] | also measured
22 | DYMTSMKRFK |  |  |  |  |  | Kd [4, 14]: 21.2 nM
23 | EAKQPATLR |  |  |  |  |  | Kd [2, 10]: 74.8 nM; Kd [4, 10]: 10.1 nM
24 | EANASAQTK | 2600 nM | 27.3 nM | 1560 nM | 12500 nM | ≥ 56300 nM | 
25 | EASIQPITR |  |  |  |  |  | Kd ([2]; source organism: Homo sapiens): 50 nM
26 | EFLHYCNSY | ≥ 31600 nM | ≥ 24600 nM | ≥ 78000 nM | 6030 nM | ≥ 37700 nM | 
27 | EIMDKEQLLK | 87.8 nM | 5.42 nM | 1320 nM | 9850 nM | ≥ 50900 nM | 
28 | EMGANFKADR |  |  |  |  |  | Kd [4, 8]: 1540 nM
29 | FKVAFSKHYK |  |  |  |  |  | Kd [1, 15]: 2140 nM; Kd [2, 15]: 582 nM; Kd [3, 15]: 279 nM; Kd [4, 15]: 3190 nM; Kd [5, 15]: 48.3 nM
30 | FLIVSLCPTK | 2.2 nM | 977 nM | 219 nM | 15100 nM | ≥ 25600 nM | 
31 | FLLRHYYNK | 27.1 nM | 1340 nM | 7.31 nM | 2050 nM | 76.4 nM | 
32 | FMALVAFLR |  |  |  |  |  | Kd [2, 10]: 50.6 nM; Kd [4, 10]: 10.7 nM; Kd [5, 10]: 16.9 nM
33 | FMSHVKSVTK | 3.28 nM | 31.6 nM | 7.73 nM | 98.9 nM | 279 nM | 
34 | FNMLKRARNR |  |  |  |  |  | Kd [4, 14]: 421 nM
35 | FTTRLLSSTR |  |  |  |  |  | Kd [2, 9]: 25.5 nM; Kd [4, 9]: 85.4 nM
36 | FVSLVKKNKK | 234 nM | 11.5 nM | 4660 nM | 9290 nM | 284 nM | 
37 | GIADIRDKY | 8970 nM | 2340 nM | ≥ 78000 nM | ≥ 77700 nM | ≥ 77900 nM | 
38 | GIFVDTMSIY | 815 nM | 3380 nM | 3790 nM | ≥ 28500 nM | ≥ 70000 nM | 
39 | GLFCLLNRY |  |  |  |  |  | Kd [1, 7]: 1340 nM; Kd [2, 7]: 16100 nM; Kd [3, 7]: 839 nM; Kd [4, 7]: 13000 nM; Kd [5, 7]: 7160 nM
40 | GLTPEQKAY | ≥ 56300 nM | 15000 nM | ≥ 78000 nM | ≥ 77700 nM | ≥ 77900 nM | 
41 | GNFSWFPHK |  |  |  |  |  | Kd [1, 16]: 80.2 nM; Kd [2, 16]: 1830 nM; Kd [3, 16]: 159 nM; Kd [4, 16]: 6310 nM; Kd [5, 16]: 1350 nM
